From PMC10659534 (Research Square, 2023) come the findings set out here.

What all share (experiment): ELISA
What all share (settings): both partners purified

Assay [1] addresses H7N9 HA (A/Shanghai/2/2013) pre-treated with Endoglycosidase H (Influenza A virus A/Shanghai/2/2013 …, UniProt R4NN21).
Assay [2] concerns the target T1, recombinant H7N7 HA based on A/Netherlands/219/2003 (Influenza A virus …, UniProt Q6VMK1).
T1 construct: source: bought: Immune Technologies, New York, NY

Assay [3] has as its target T2, soluble recombinant H7N9 HA based on A/Shanghai/2/2013 (Influenza A virus A/Shanghai/2/2013 …, UniProt R4NN21).
T2 construct: source: bought: Immune Technologies, New York, NY

Assay [4] addresses H7N9 HA1 based on A/Shanghai/2/2013 (Influenza A virus A/Shanghai/2/2013 …, UniProt R4NN21, strain).
For the next assay, the target named is H15N8 HA (Influenza A virus H15N8, strain not …, UniProt Q82565, strain).

B1: H7.HK2 (antibody, V domains shown)
VH: QVQLQGSGPGLLRPSETLSLTCSVSGVSINSYYWSWVRQPPGKALEWIGYIYYSGNTNYNPSLESRVTISVDRSKNQFSLKMTSVTAADTARYFCARQGIFGDYGSDYWGPGTLVTVSS
VL: DIVMTQSPLSLPVTPGEPASISCRSNQSLQHSNGYVHLDWYRQKPGQSPHLLIYLGFNRASGVPDRFSGGGSGTDFTLKISRVEAEDVGVYYCMQGLQTPFTFGPGTTVDLK
notes: also called H7.HK2 mAb; H7.HK2 human IgG1
Regarding B1, the binding result in assay [1], in assay [2], in assay [3] and in assay [4] was “binds” throughout.

B2: H7.HK1 (antibody, V domains shown)
VH: QVQLQESGPGLVKPSETLSLTCSVSGGSINSYYWTWIRQPPGKGLEWVGYIYHSGSTSYNPSLKSRITISVAPSKNHFSLELTSMTAADTAVYYCARLGGHGDYGSDYWGQGTLVTVSS
VL: DIVMTQSPVSLPVTPGEPASISCNSSQSLLHSNGYAHLDWYLQKPGQSPKLMIYLGLNRAFGVPDRFSGSGSGTDFTLKISRVEAEDVGVYYCMQALQTPFTFGPGTRVDIK
notes: also called H7.HK1 mAb; H7.HK1 human IgG1
For the molecule B2, the binding result in assay [1], in assay [2], in assay [3] and in assay [4] was “binds” each time.

B3: H7.HK4 (antibody, V domains shown)
VH: QVQLQESGPGLVKPSETLSLTCTVSGGSVRSASYAWSWIRQPPGKGLEWIGDIYYSGTTNYNPSLKSRVTLSVDTAKNRFSLRLRSVTAADTAVYHCARERYYYGSSGDFDYWGQGTLVTVSS
VL: DIQMTQSPSSLSASVGDRVTITCRASQGIRNYLAWFQQKPGQAPKSLIFAASSLHTGVPSRFSGSGSGTDFTLTISSLQPEDFATYYCQHYNSYPPTFGQGTKLEIK
notes: also called H7.HK4 mAb
As to B3, the binding result in assay [1] is recorded as “binds”; with H15N8 HA it was “binds”; in assay [2], “binds”; in assay [3] it was “binds”; in assay [4], “no binding”.

B4: H7.HK3 (antibody, V domains shown)
VH: QVQLVQSGSELKRPGASVKVSCRASGYTFTSYTINWVRQAPGQGLEWMGWINTSTGDPTYAQGFTGRFVFSLDTSVSTAYLEISRLKAEDTAVYYCARAFGLTVVRGGIVGVWGQGTTVTVSS
VL: not shown
notes: also called H7.HK3 mAb
With B4, the binding result (in assay [1]; in the assay with H15N8 HA; in assay [2]; in assay [3]; in assay [4]) was “binds” each time.
